# Laboratory results from PMC9904299.
# Biological target: mitochondrially targeted human MSRA tagged with tGFP at its C-terminus (targeting sequence of ornithine carbamoyltransferase fused to the N-terminus of MSRA)
# Assay: co-immunoprecipitation (anti-FLAG IP, anti-tGFP blot), band intensity quantitated with Odyssey infrared scanner
# Conditions: HEK293 cells; 3 separate experiments; parent: est. 100; read off a plot
row,percent of parent [%],Substance
1,90,FLAG-tagged human Ndufaf2 M160V
2,36,FLAG-tagged human Ndufaf2 M85V; M160V
3,90,FLAG-tagged human Ndufaf2 M85V
